Experimental data as given in CN113999308A (SHENZHEN PEOPLES HOSPITAL, dated 2022).

Target: T1, CDH17蛋白细胞外段1~3结构域 (recombinant CDH17 extracellular domains 1-3) (human, UniProt Q12864 23-340, limits assumed)
T1 construct: domain: 细胞外段1~3 结构域; purified on Ni resin, so probably His-tagged, but the tag is not described; also called CDH17 1-3D; CDH17 1~3结构域蛋白
T1 sequence (looked up): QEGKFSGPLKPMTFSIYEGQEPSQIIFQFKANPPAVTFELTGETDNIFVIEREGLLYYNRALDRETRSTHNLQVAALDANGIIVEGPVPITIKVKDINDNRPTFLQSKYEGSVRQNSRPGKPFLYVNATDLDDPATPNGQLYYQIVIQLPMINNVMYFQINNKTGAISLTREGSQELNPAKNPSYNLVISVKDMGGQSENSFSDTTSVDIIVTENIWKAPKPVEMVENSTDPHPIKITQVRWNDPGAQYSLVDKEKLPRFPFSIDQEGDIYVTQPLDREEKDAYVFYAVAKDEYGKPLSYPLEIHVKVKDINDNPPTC
Test: SPR (Biacore), purified antigen on the chip, nanobody as analyte (Fig. 5E)

B1: Nb193纳米抗体 (Nb193 nanobody) (VHH)
VHH: AVQLVESGGGLVQAGGSLRLSCVASGSTLERYAVYWYRQPPGKERELVAGIMRGGNINYADSVKGRFTISKDYAKNTLILQMNSLKPEDTAVYYCNAGGSRFGYWGQGTQVTVSS
notes: From a naive alpaca phage display nanobody library; Expressed in E. coli with HA tag and His tag, about 15 kDa; the tag piece is put last only for want of better; not shown: HA tag and His tag fused to the nanobody (pET-14B, E. coli)
Kd: 17.6 nM
